In the DeepSol protein solubility set:

Experiment: soluble on expression in E. coli; label from the status in PepcDB or PDB records

| Sequence | soluble on expression in E. coli |
| --- | --- |
| MGSSHHHHHHGSTKYALVGDVGGTNARLALCDIASGEISQAKTYSGLDYPSLEAVIRVYLEEHKVEVKDGCIAIACPITGDWVAMTNHTWAFSIAEMKKNLGFSHLEIINDFTAVSMAIPMLKKEHLIQFGGAEPVEGKPIAVYGAGTGLGVAHLVHVDKRWVSLPGEGGHVDFAPNSEEEAIILEILRAEIGHVSAERVLSGPGLVNLYRAIVKADNRLPENLKPKDITERALADSCTDCRRALSLFCVIMGRFGGNLALNLGTFGGVFIAGGIVPRFLEFFKASGFRAAFEDKGRFKEYVHDIPVYLIVHDNPGLLGSGAHLRQTLGHIL | soluble |
| MGSDKIHHHHHHMALSERLSRFLARKGITYQPLETEPVANLDAAVLASGKPQHDFIKATLLIDINGVVMVVHRFDSTLDMDAVHQFTGRRLQPLTARQTSRLFGDCDAGFVPPIGAAWELPVLVDEDVVTAESVIFSGGTDHSLVEMDGRAFRLAQAGARQGHLVIRGQGGEDREALTLEDVADKLQKLYRLPPMPALALRILRLTANTEATAKELAELIEFDPSMTAQIMRYARSALFNYPGQINSVQEAVTRVLGFDRVAHIALGIASVRAFDVPRGGMLGMDNFWRHSLYCAFLCQNLAAYSGRDKGLAYLCGLLHNFGLLLVGHLFPSEFEELNALREINPEASMHSLEQEVFGHSERQDILAVGHGAIGGILHRLWQLPEAVIKAAGMHQHIGYHGEHEEYVQMVQLANAILKERGIGDELNPDDLPALVESLGLRADVLERVQSDMDQVASDLDVLASSLAS | not soluble |
| MDDREDLVYQAKLAEQAERYDEMVESMKKVAGMDVELTVEERNLLSVAYKNVIGARRASWRIISSIEQKEENKGGEDKLKMIREYRQMVETELKLICCDILDVLDKHLIPAANTGESKVFYYKMKGDYHRYLAEFATGNDRKEAAENSLVAYKAASDIAMTELPPTHPIRLGLALNFSVFYYEILNSPDRACRLAKAAFDDAIAELDTLSEESYKDSTLIMQLLRDNLTLWTSDMQGDGEEQNKEALQDVEDENQ | soluble |
| MTEKTTVKTLKDVVVRFCGDSGDGMQLTGTIFSDLSAVFGNTISTFPDYPAEIRAPQGTLGGVSGFQVHIGTDLVRTPGDLADVLVAMNPAALKVNRTHVRRDSIIIIDSDSFMASDLEKAEIASEDFMTELGLTTQELFTVPISSMVKKSTAEFGLDVKAALRCKNMFALGLVCWLFDRPTQHAIDYLNRKFGKKEAILNANIKALADGFNYGHNTHATATTYRIEGRKQTPGVYMDISGNKATAYGLVAAAEHANLNLFLGSYPITPATDILHELAKLKSLGVKTVQAEDEIAGICTAIGVSFAGDLAVTTTSGPGLALKSEALGLTVMAELPLVLVDVQRGGPSTGLPTKSEQTDLLQALFGRNGESPIPVIAATTPSDCFDSAFWACKIALEHMTPVILLTDAFIANGSSAWRIPDPQSYPDIRPPYVDQYKGEAKWRPYFRNEETHVRYWAIPGQEGFQHRLGGLEKDYVTGAISTNPENHAKMVATREAKVQAIAQDIPDLEVHGDKDDAELLIIGWGGTYGHLYETMERMRNAGKKVALAHFRFINPLPKNTAEVLQRYPKAVVAEQNLGQFALYLRGEVPGFHPLQFNRVTGQPLVMSEMVEVFTQMMEEK | not soluble |
| MSLYKLYSMQRSGNSYKVRLALALLDAPYRAVEVDILRGESRTPDFLAKNPSGQVPLLETAPGRYLAESNAILWYLAVGTSLAPDTRMDRAEALQWMFFEQHALEPNIGSAYFWLCLVKGGRDLQTHALEDWLERGYAALQVMENHLKTNDYFAAGQLTIADIALYGYTHVADQCDFDLSTFPAVNAWLRRVEQTPGFITMDWTPETIAADPTSFAAEGHHHHHH | soluble |
| MSLGYIMDLRKELPNPHRPLIMCSAGIIIIDKKGRVLLQKRTDNNKWGLPGGSLELGESFEEAAIREAYEEVGLKVKSLSLFNVYSGKECYNKYPNGDEIYNASSIFISNDYEGEVILDGEESADAVFFKKVDIPSLEEVNPPDRIVIKDIIEKLNIEKYEGHHHHHH | not soluble |
| GSSHHHHHHDYDIPTTENLYFQGSAHRPRWTLSQVTELFEKPLLDLLFEAQQVHRQHFDPRQVQVSTLLSIKTGACPEDCKYCPQSSRYKTGLEAERLMEVEQVLESARKAKAAGSTRFCMGAAWKNPHERDMPYLEQMVQGVKAMGLEACMTLGTLSESQAQRLANAGLDYYNHNLDTSPEFYGNIITTRTYQERLDTLEKVRDAGIKVCSGGIVGLGETVKDRAGLLLQLANLPTPPESVPINMLVKVKGTPLADNDDVDAFDFIRTIAVARIMMPTSYVRLSAGREQMNEQTQAMCFMAGANSIFYGCKLLTTPNPEEDKDLQLFRKLGLNPQQTAVLAGDNEQQQRLEQALMTPDTDEYYNAAAL | soluble |
| MSKCPTVRARAIDCKQGAVRAVRYNVDGNYCVTCGSDKTVKLWNPLKSSLLKTYSGTGNEVLDAASSSDNSQIAAGGADRACTVFDVETGKQLRRWRTHGAQVNAVAFNEESSVVFSGSMDCTMQAFDCRSRSEKPIQIFNESTDGILSIDVNGHEIVAGSADGNYRVYSIRDGNMTVDYMGDSVNSVSFTPDSNCLLAGVMGGIVRLIDKSSGKLLASYKGHQNTEYKLDCRVLQSIEHVASGSEDGFVYVYSLLDSHIVSKLEHPSKVIHSLTAHPKKERLMTAAGQMIYLWVAEDDAEVLGE | not soluble |
| MIVGIGIDIIELNRIEKMLDGKLKFMERILTENERNVAKGLKGSRLTEFVAGRFAAKEAYSKAVGTGIGKEVSFLDIEVRNDDRGKPILITSTEHIVHLSISHSKEFAVAQVVLESSSS | not soluble |
| MGSDKIHHHHHHATSFTDSLDLTQYRNDVKTLASDAFGGRAPLSEGEQLTLDYLEKAFKEMGLKPAFGDSYLQAVPLAKISADQNMQLDIGGLKLANGSEFTARTQRIAEKVSLKNSDVVFVGYGINAPEYGWNDYQGLDVKGKTVIVLVNDPGFATQDPNVFKGNAMTYYGRWTYKYEEAARQGAEAVFIVHETAPAAYGWGVVQNSNTGTKFALVDTNNNQGQVGVMGWVQYEVAQNIFAKAGMNFDNLKQQAAKPNFKALPLKLRATLTLNNTIERAESHNVAALLPGKTRPDEVVMMHAHWDHLGTIIENGKPEILNGAVDNASGVAGVLALARYFKQQAEIAPLERSIIFSAFTAEETGLIGAQHFAQHPSVPTKDIVAFLNIDGMNVGQSVDYILRYGDGVSELEQYLDKAAKAQGRLVKADPRPQNGLMFRSDHFALAQQGVPGLLFMSLGDTDPDYIAHKYHQGADDYDPNWSLAGVSQDLELMAQMLTMLANSRDWPRWIESSDFKAKREQDGRN | not soluble |
| GVTKKLKISRTATCKGCKGLGGNEGSAKECSDCRGRGIKVRVIRMGPMVQQMQSHCDSCNGEGSTFLEKDRCKKCNGKKQVKEDEI | not soluble |
| MGSDKIHHHHHHMLLRKDEVFYIDLPRKIEKEEKVKEEKTKENAAEEIQRIEKMREKILSEAQEEARKIIEGARKDAEEILSNASSEAEALKLEAKKVLEEAKTMKNDFQKYILALKEKIQKQVNQRIEEILPELLDILRILFKKILEKEMDESTVERKLRSALSKVVGIKNVKIRINPEDAKKLDLSEVSKETLIPDPNVERGGVIVETDFGILDKTFSHQWELVEDIFEEVVGFEGHPERAEKEVE | not soluble |
| MEAESAPQAPMSGGRVLKMVTEMGSATVGGISPALSANAAKSFLEATDKEKKTLQGLNDRLGNYIDRVKKLEEQNRKLVADLDELRGKWGKDTSEIKIKYSESLSTARKDIDDAARRKAEVDVKVARHRDDLAEYRSRYEDIQQRRESDREKISQWTNAIADAQSEVEMLRARFKQLTDEEKRVTADNSRIWEELQKARSDLDDETIGRIDFQNQVQTLMEELEFLRRVHEQEVKELQALLAQAPADTREFFKNELALAIRDIKDEYDIIAKQGKQDMESWYKLKVSEVQGSANRANMESTYQRDEVKRMRDNIGDLRGKLGDLENKNSLLEKEVQNLNYQLTDDQRQYEAALNDRDATLRRMREECQTLVAELQALLDTKQMLDAEIAIYRKMLEGEETRVGLTQMVEQAVKTHSLQQQENTDSTRSVRGEVSTKTTFQRSAKGNVTISECDPNGKFIKLENSHRNKDENVGEHKIRRKLDGRREIVYSIPANVVIKPGKNLTIYARDQGGINNPPESLVFDGENTWGIGANVVTSLVNKDGEERATHTQKTIQSGQ | not soluble |
| MGSDKIHHHHHHLNIAVNTRLLLEDRLEGIGWFTYETLKRITEQNPQHTFHFFFDRPYNDKFVFGKNVVPHVLFPQARHPFLWYIFFEWSIPFMLRKVKADAFISTDGYMPKSSKVKVLNVIHDINFEHRPQDLPKRVANYYKKNMPLFAQKATRLATVSEFSKQDLVKTYNIPADKIDVVYNGCNAAFKPIPEAEQVKVRYKHSAGRPFFLYIGSMHPRKNILNLMKAFEVFKKMTNCDMKLLLVGKAMWSNKDIQSLYHTLIYRHDIHFLGHIKTAELARIMASAHALTFVPYFEGFGIPILEALNCGVPVITSNTTSLPEVAGKAALLVNPESSEAIANAMIQIYKAPHIREKLLAQGVIQRQKFSWDKTAALLWASFEKMMR | not soluble |
| MGSDKIHHHHHHMSELLAIPLKRTLEVDFATELSKLIDTTSFQTASFFQSDILKVVDARNNAIAPDISIDGLSALKEYYVILLQLEKKFPNNQIEFTWFQTLSQKSRGTSQYSLQWEKLTIIYNIGCMYSLLALNSNNDAAESLKTSCLYFQNAAGCFKHVLDHQKNLETIPVVDDATLNALTSLMLAQAQECFWFKAVQDKHKDSLIAKLSQQIVDFYCEAINDAQRGKLIRSDWINHLKAKKAYFSAVTYYRIALSFNEKKQFGNVVKALQMGLQFINESTLSSQAKFKTVVESSLKEAQRDNEFIYLQEVPSELPSIKPALMVKPSSSATLLPSIKKDETLFKDLIPIEVMEYCTAYNERQDEYVEQRVTNPLASLNKLLKESLTTFQIPQGLTKVSEAELSHYQASLNNLLINNKNVQVQLDNIEQILNEEAFTDNQLRLKHGTLNWTLPESSTTNTAYYEKLKKLRGYLDEGSAIDKQTNELFQSIDKNLIGSEIRLPESNDPLTNKIKMIIQERNDYIDRTRRKSSEYRILPKIITSYKKNGTVDFEPIFIGHLKYFDEDLRYVNSTKEENIKLIEEVNLSKKNNPGRSGIEPKKMVRIDPRELYIEDLRYSFKLLDEVKENLSAGTAFYENLITSTSNLYNEVQEYDTARRAEKARLDKSLTFEDQ | not soluble |
| MTRKFLNILKERTGVESITREQVRGIRRLVKKAREWDERKAQRYAKSAGKISDEEYSRLWSIDSYVISDSDKEKLKNLDQKTVFNNIMWLSRNAEKIDSNMKKFLGMHVWVVNYWIKTVGSATVRKFLRENNYSGEFVYFLYRYFNL | not soluble |
| MAHHHHHHMPYNALVSSHLAELTLCKLAELMVPNDFNLFVLAIKDDLLSKALEDHSLFVFLSAAFVNAIIPKLKELKLEEDKDDSPHLCALRVRPHERPFKPRLLECLKDFKGKINAECRVLYKPEAKNFPLVDGFFFVESKPKIMVGLQMTTASEHHTIPSTVNLFKENMAKYFNGWEKFSRDMLWEIIYIQHADSTPLDGWQRCDYVNPRNKTDAENEIVAFWNGKVHQYQFVLTTEFVSKIREMKM | not soluble |
| MSLGRGLYFNQAQKHFQQLLLMEERATIARELHDSLAQVLSYLRIQLTLLKRSIPEDNATAQSIMADFSQALNDAYRQLRELLTTFRLTLQQADLPSALREMLDTLQNQTSAKLTLDCRLPTLALDAQMQVHLLQIIREAVLNAMKHANASEIAVSCVTAPDGNHTVYIRDNGIGIGEPKEPEGHYGLNIMRERAERLGGTLTFSQPSGGGTLVSISFRSAEGEESQLMEGHHHHHH | soluble |
